This is an account of results in IntAct's records for PubMed 24525235.

To fix the notation:
B1: Twist-related protein 1 (Homo sapiens), Q15672 (parent)
chain: MMQDVSSSPVSPADDSLSNSEEEPDRQQPPSGKRGGRKRRSSRRSAGGGAGPGGAAGGGVGGGDEPGSPAQGKRGKKSAGCGGGGGAGGGGGSSSGGGSPQSYEELQTQRVMANVRERQRTQSLNEAFAALRKIIPTLPSDKLSKIQTLKLAARYIDFLYQVLQSDELDSKMASCSYVAHERLSYAFSVWRMEGAWSMSASH

The assay covers variants of B1. The settings on record: with BRD4, O60885-1.
For the variant MMQDVSSSPVSPADDSLSNSEEEPDRQQPPSGKRGGRKRRSSRRSAGGGAGPGGAAGGGVGGGDEPGSPAQGRRGRKSAGCGGGGGAGGGGGSSSGGGSPQSYEELQTQRVMANVRERQRTQSLNEAFAALRKIIPTLPSDKLSKIQTLKLAARYIDFLYQVLQSDELDSKMASCSYVAHERLSYAFSVWRMEGAWSMSASH [K73R;K76R], the “effect of a mutation on the interaction” value is reported as “disrupting interaction strength”.
With MMQDVSSSPVSPADDSLSNSEEEPDRQQPPSGKRGGRKRRSSRRSAGGGAGPGGAAGGGVGGGDEPGSPAQGRRGKKSAGCGGGGGAGGGGGSSSGGGSPQSYEELQTQRVMANVRERQRTQSLNEAFAALRKIIPTLPSDKLSKIQTLKLAARYIDFLYQVLQSDELDSKMASCSYVAHERLSYAFSVWRMEGAWSMSASH [K73R] the entry was “decreasing interaction strength”; with MMQDVSSSPVSPADDSLSNSEEEPDRQQPPSGKRGGRKRRSSRRSAGGGAGPGGAAGGGVGGGDEPGSPAQGKRGRKSAGCGGGGGAGGGGGSSSGGGSPQSYEELQTQRVMANVRERQRTQSLNEAFAALRKIIPTLPSDKLSKIQTLKLAARYIDFLYQVLQSDELDSKMASCSYVAHERLSYAFSVWRMEGAWSMSASH [K76R], “decreasing interaction strength”.
